{"source": "paper PMC3686096", "about": "(Journal of the American Chemical Society, 2013)", "experiment": "Control: unseeded Aβ1–40 solution checked for fibrils by TEM or AFM", "assay_type": "physicochemical", "conditions": "unseeded 50 µM Aβ1–40 solution, 30 min incubation", "data": [{"substance": "Aβ1–40: 40-residue β-amyloid peptide, made by solid-phase synthesis; also literature fibrils of unspecified polymorph", "values": [{"measurement": "fibril formation in unseeded solution", "value": "no fibrils were observed"}]}]}
